Data taken from PMC3050036.

Molecular target: presenilin-1 (wild-type PS1) (UniProt P49768)
Experiment: FRET or BRET

V5-tagged ubiquilin-1 transcript variant 3 (TV3) (natural protein)
Alexa 430 donor lifetime with Cy3 acceptor on PS1 CT: 1350 psec
FRET strength: 0.3
